The values that follow come from PMC2064653 (The Journal of Cell Biology, 2007).

Data set [1] deals with Myo4/2p (Myo4 motor - Myo2 IQ + C-tail) (S. cerevisiae) (UniProt P32492). Put plainly: cross-linking.
For data set [2], the target named is Myo4p-GFP (S. cerevisiae) (UniProt P32492). Put plainly: single-molecule fluorescence intensity and photobleaching.
The data set “cross-linking” concerns the molecule itself. Put plainly: cross-linking.
Data set [3] concerns the molecule itself. Put plainly: single-molecule fluorescence intensity and photobleaching.

Bounds are passed on as bounds.

With “Myo4/2p (Myo4 motor - Myo2 IQ + C-tail) (from UniProt P32492 1-778; P19524 783-1574)”, in data set [1], the stoichiometry N (commonly the number of molecules, sites or subunits per partner or assembly) worked out at 2. On to “Myo4p-GFP (from UniProt P32492 1-1471) (natural protein)”, for which the stoichiometry N in data set [2] is above 3.

B1: Myo2p (TEV-eluted and actin affinity purified from Myo2p-1/2TAP) (natural protein, S. cerevisiae, UniProt P19524 1-1574, looked up)
chain: MSFEVGTRCWYPHKELGWIGAEVIKNEFNDGKYHLELQLEDDEIVSVDTKDLNNDKDQSLPLLRNPPILEATEDLTSLSYLNEPAVLHAIKQRYSQLNIYTYSGIVLIATNPFDRVDQLYTQDMIQAYAGKRRGELEPHLFAIAEEAYRLMKNDKQNQTIVVSGESGAGKTVSAKYIMRYFASVEEENSATVQHQVEMSETEQKILATNPIMEAFGNAKTTRNDNSSRFGKYLEILFDKDTSIIGARIRTYLLERSRLVYQPPIERNYHIFYQLMAGLPAQTKEELHLTDASDYFYMNQGGDTKINGIDDAKEYKITVDALTLVGITKETQHQIFKILAALLHIGNIEIKKTRNDASLSADEPNLKLACELLGIDAYNFAKWVTKKQIITRSEKIVSNLNYSQALVAKDSVAKFIYSALFDWLVENINTVLCNPAVNDQISSFIGVLDIYGFEHFEKNSFEQFCINYANEKLQQEFNQHVFKLEQEEYVKEEIEWSFIEFNDNQPCIDLIENKLGILSLLDEESRLPAGSDESWTQKLYQTLDKSPTNKVFSKPRFGQTKFIVSHYALDVAYDVEGFIEKNRDTVSDGHLEVLKASTNETLINILEGLEKAAKKLEEAKKLELEQAGSKKPGPIRTVNRKPTLGSMFKQSLIELMNTINSTNVHYIRCIKPNADKEAWQFDNLMVLSQLRACGVLETIRISCAGFPSRWTFEEFVLRYYILIPHEQWDLIFKKKETTEEDIISVVKMILDATVKDKSKYQIGNTKIFFKAGMLAYLEKLRSNKMHNSIVMIQKKIRAKYYRKQYLQISQAIKYLQNNIKGFIIRQRVNDEMKVNCATLLQAAYRGHSIRANVFSVLRTITNLQKKIRKELKQRQLKQEHEYNAAVTIQSKVRTFEPRSRFLRTKKDTVVVQSLIRRRAAQRKLKQLKADAKSVNHLKEVSYKLENKVIELTQNLASKVKENKEMTERIKELQVQVEESAKLQETLENMKKEHLIDIDNQKSKDMELQKTIENNLQSTEQTLKDAQLELEDMVKQHDELKEESKKQLEELEQTKKTLVEYQTLNGDLQNEVKSLKEEIARLQTAMSLGTVTTSVLPQTPLKDVMGGGASNFNNMMLENSDLSPNDLNLKSRSTPSSGNNHIDSLSVDRENGVNATQINEELYRLLEDTEILNQEITEGLLKGFEVPDAGVAIQLSKRDVVYPARILIIVLSEMWRFGLTKQSESFLAQVLTTIQKVVTQLKGNDLIPSGVFWLANVRELYSFVVFALNSILTEETFKNGMTDEEYKEYVSLVTELKDDFEALSYNIYNIWLKKLQKQLQKKAINAVVISESLPGFSAGETSGFLNKIFANTEEYTMDDILTFFNSIYWCMKSFHIENEVFHAVVTTLLNYVDAICFNELIMKRNFLSWKRGLQLNYNVTRLEEWCKTHGLTDGTECLQHLIQTAKLLQVRKYTIEDIDILRGICYSLTPAQLQKLISQYQVADYESPIPQEILRYVADIVKKEAALSSSGNDSKGHEHSSSIFITPETGPFTDPFSLIKTRKFDQVEAYIPAWLSLPSTKRIVDLVAQQVVQDGH
As for B1, the “stoichiometry N” value in the data set “cross-linking” came out at 2.

B2: Myo2p-GFP (natural protein, S. cerevisiae, UniProt P19524 1-1574, looked up)
chain: B1 chain
For the molecule B2, the “stoichiometry N” value in data set [3] came to 2.
